In US11028127B2, “Peptides capable of reactivating p53 mutants” (Yeda Research and Development Co. Ltd., priority 2013, dated 2021):

Experiments:
[1] = system: WI-38 fibroblasts overexpressing R175H p53 (WI38-175); assay: Crystal violet viability assay; assay type: cell-based; settings: 48 hours; much more prominent than in mNoxa-i control cells
Method: FIGS. 13A and 13B are bar graphs illustrating the effect of various tested peptides on the viability of cells expressing Mut-p53, as determine by crystal violet assay. WI-38 fibroblasts expressing endogenous WT p53 were infected with retroviruses expressing either mouse Noxa shRNA (WI38-m-Noxa-i) as a nonspecific control or the R175H p53 mutant for stable overexpression of mutant p53 (WI38-175). The cells (WI38-m-Noxa-i or WI38-175) were seeded at 3000 cells per well in 96-well plates. Tested peptides were added to the cells. Different concentrations of etoposide (cytotoxic drug, 4′-Demethyl-epipodophyllotoxin 9-[4,6-O—(R)-ethylidene-beta-D-glucopyranoside], 4′-(dihydrogen phosphate) were used as positive control for cell death and as a standard reference curve to assess the effect of tested peptides. 48 hours after treatment, cells were washed with PBS to exclude dead cells and debris, and cells that remained attached to the plate were stained with crystal-violet for 30 minutes. Crystal violet was removed and cells were washed 4 times with PBS to remove residual crystal violet. Then, the stained cells were dissolved in 10% acetic acid and plates were taken for optical density measurement at 595 nM (optimal for crystal violet). The bar graphs of FIGS. 13A and 13B show the optical density reads at 595 nm, which reflect the number of cells in the plate after treatment, normalized to the non-treated (NT) samples.
Cells were cultured in 96 wells plates with 2500-4000 cells/well in 0.1 ml and incubated overnight at 37° C. in order to adhere to the plate. Serial dilutions of different peptides (0.5 μg/ml) were added in 0.1 ml aliquots and the plates incubated for additional 48 h at 37° C. Then medium was removed and cell lysis was determined by staining the cells with crystal violet (0.5%) in methanol/water (1:4, v/v), 50 μl each well, for 10 min, followed by 3 washes with PBS. Afterwards, 10% acetic acid (50 μl) was added to each well and shaken for 10 min. Then, automatic plate reading was performed at 595 nm.
An important indication for the reactivating peptides activity is their effect in-vivo on cancer cells that express Mut-p53. In particular, reactivating peptides that can cause specifically Mut-p53-dependent death of cancer cells, with minimal toxic effects on normal cells are desired. A crystal-violet based viability assay, in which crystal-violet is employed to stain cells that adhere to the plate and therefore the amount of dye is proportional to cell number was used to determine the effect of the various test peptides on Mut-p53-dependent death.
Cells were plated in 96-well plates, at calibrated density that allows them to grow for 48 hours without reaching confluence. Peptides are added 6 hours later. Different concentrations of etoposide (cytotoxic drug) were used as positive control for cell death and as a standard reference curve to assess the effect of tested peptides. 48 hours after treatment, cells were washed with PBS to exclude dead cells and debris, and cells that remained attached to the plate were stained with crystal-violet for 30 minutes. Crystal-violet was removed and cells were washed with PBS 4 times to eliminate remains of crystal-violet. Then, the stained cells were dissolved in 10% acetic acid and plates were taken for optical density measurement at 595 nM (specific to crystal-violet).
FIGS. 13A and 13B illustrate a representative experiment of screening performed on 128 synthesized peptides. In this experiment, WI-38 fibroblasts were used. These cells express endogenous WT p53 and were further infected with a virus expressing either mouse Noxa shRNA, as a nonspecific control or the R175H p53 mutant for stable overexpression of mutant p53. Both of these sub-lines (mNoxa or R175H p53) were seeded at 3000 cells per well and treated as described above. […]

[2] = molecular target: T1, Mut-p53 (R175H p53) (Homo sapiens, UniProt P04637, R175H); assay: Sandwich ELISA for p53 conformation (PAb1620/PAb240 reactivity); assay type: biochemical; settings: extract of H1299 cells overexpressing R175H p53; peptide 50 ng/ml, 2 hours
T1 construct: a hot spot full length mutant p53 Mut-p53 R175H (R175H p53); expressed in transfected cells; host or cells: H1299 (p53-null) cells stably overexpressing R175H p53; cell extract
Method: To measure the conformational effect of the peptides on Mut-p53, a micro-titer plate was coated with either PAb240, PAb1620 or pAb421 (as a positive control and standard for total p53 protein, since the antibody used recognizes both WT and mutant conformations), overnight incubated, washed, blocked, and cell extracts (with or without peptides) were added for an additional 2 hours. After removal of extracts, plates were washed and incubated with the αp53-HRP conjugated Ab for the detection of p53 levels. A TMB (substrate of HRP) assay was performed and optical density was determined at 450 nm. WT p53 served as a positive control for reactivity with PAb1620, and Mut-p53 served as a negative control. The results are presented as the ratio of absorbance between the PAb1620 or PAb240 samples and the control […] sample. MCF7 and H1299-Mut-p53 (ts) A135V (TS) cells were used as positive controls for the WT p53 conformation (1620/240 ratio equals or exceeds 5:1).
96-well plates were coated using 3 different antibodies (1 type of antibody (Ab) in each well): PAb421 recognizes both conformations of p53 and binds to a C-terminus epitope; PAb240 recognizes mutant conformation of p53, binds to epitope within the core domain (amino acids 212-217) (Stephen, C. W. and D. P. Lane, Mutant conformation of p53. Precise epitope mapping using a filamentous phage epitope library. J. Mol. Biol., 1992. 225(3): p. 577-83) which is accessible to the Ab when the protein is partially denatured (for example, when the DBD is mutated); and PAb1620, which recognizes WT conformation of p53, binds to epitope with in the core domain (aa 156, 206-210), formed when folding is in WT conformation (Wang, P. L., F. Salt, and G. Winter, The ‘wild type’ conformation of p53: epitope mapping using hybrid proteins. Oncogene, 2001. 20(18): p. 2318-24).
Wells were incubated overnight (ON) with 100 μl Ab (5 μg/ml) in room temp (RT). The liquid was discarded, and the wells were washed 3 times with Phosphate buffered saline (PBS), 200 μl per each wash. Next, blocking with 200 μl of 5% bovine serum albumin (BSA) diluted in PBS in each well for 1.5 hours at room temperature (RT) was performed. Blocking buffer was discarded, followed by 3 washes in PBS as described above. Samples of mutant and WT p53 proteins (100 μl, 10 μg/ml), together with control peptides pCAP-710 (LPNPPER, SEQ ID NO:328) and pCAP-1220 ([…], SEQ ID NO:368) (5 μg/ml, Sigma Aldrich, or with test peptides 1-153 (5 μg/ml), were incubated for 1.5 hours together, and then added to the wells. Samples were rotated and incubated for 1 hour at RT. Samples were discarded, following 4 washes as described above, using Trisphosphate buffered saline (TPBS). Next, horseradish peroxidase (HRP) conjugated streptavidin p53 antibody (10 μg/ml HAF1355 (R&D)) was added to the wells and incubated at RT for 1 hour. After the plate was washed 3 times in TPBS, TMB substrate solution (50 μl each well, Thermo, (Cat. No. ES001-1L-K)) was added and incubated at 37° c. for 20 min. The reaction was stopped with 2M sulfuric acid (50 μl). The absorbance was measured at 450 nm with a spectrophotometer. Protein concentration was determined by dividing the absorbencies of each sample to the absorbance of Ab 421 samples.
The first screening strategy was based on ELISA. A version of sandwich ELISA was used to examine the effect of the lead test peptides on p53 conformation. To measure the conformational effect of the peptides on Mut-p53, a micro-titer plate was coated with PAb240, PAb1620 or pAb421 (as a positive control), and then the reactivity of p53 to these antibodies was examined. WT p53 served as a positive control for reactivity with PAb1620, and Mut-p53 served as a negative control. To examine the effect of a tested peptide it was added to a solution containing Mut-p53 and change in reactivity to either Ab was tested. […] Several ELISA experiments using different cell extracts were performed. […]

[3] = molecular target: T1, Mut-p53 (R175H p53); assay: p53/DNA binding ELISA kit (R&D), binding to p53-RE DNA; assay type: biochemical; settings: H1299-R175H p53 cell extracts, vs background (NT)
Excerpt: A commercial p53/DNA binding kit (R&D) was used, according to manufacturer instructions. Briefly, 96 well plates were coated with anti-p53 antibody overnight. Cell extracts containing p53 were reacted with an oligonucleotide that contains a p53 consensus binding site, labeled with biotin, in the presence or absence (NT) of test peptides. WT p53 is expected to bind this DNA binding site as well as to the antibody coating the test wells of the plate. Excess p53 and oligos are washed away and streptavidin-HRP is used to quantify the amount of oligos in the well, which is proportional to the DNA bound by p53. TMB assay was performed to determine HRP levels (450 nm). The results are presented as relative absorbance (at 450 nm) (Y-Axis) of each tested sample. MCF7 and the H1299-Mut-p53 (ts) A135V cells serve as positive controls for WT p53.
For these experiments, a commercial p53/DNA binding kit of “R&D” (Cat-DYC1355-5 Lot-1273366FA) was used, in accordance with manufacturer guide lines. Briefly, 96 well plates are coated with anti-p53 antibody overnight. Cell extracts containing p53 are reacted with an oligonucleotide that contains a p53 consensus binding site (provided in the kit), labeled with biotin, in the presence or absenc.
e (NT) of test peptides. WT p53 is expected to bind this DNA binding site as well as to the antibody coating the test wells of the plate. Excess p53 and oligos were washed away and streptavidin-HRP was used to quantify the amount of oligos in the well, which is proportional to the DNA bound by p53. TMB assay was performed to determine HRP (ES001-1L-K) levels (450 nm).
To measure the effect of the tested peptides on DNA binding of Mut-p53, a commercial ELISA kit, (R&D Systems DYC1355-5, Lot-1273366FA), was used as a high-throughput assay to quantify p53 activation. This kit uses a 96-well plate format. The kit was used according to manufacturer's instructions. Wells were coated with anti-p53 antibody overnight. Cell extracts containing p53 were reacted with a biotin labeled oligonucleotide containing a p53 consensus binding site (included in the kit). WT p53 is expected to bind this oligo as well as the antibody coating the wells. Excess p53 and oligo were washed away in wash buffer (0.05% Tween 20 in PBS, pH 7.2-7.4; R&D Systems, Catalog #WA126). Then, streptavidin-HRP (R&D Systems, Part 890803, provided in the kit) was added for 15-45 min to quantify the amount of oligo in the well, which is proportional to the DNA bound by p53. If the addition of a peptide to Mut-p53 extracts increases ELISA reading compared to background, this peptide is considered as functionally effective and may be selected for further analysis. […] As with the conformational screening, MCF7 and the H1299-Mut-p53 (ts) A135V cells served as positive controls for WT p53. Extracts were added to the wells coated with αp53-Ab, and after several washing steps, streptavidin-HRP was added for 1 hour, and then plates were washed again and TMB (substrate to HRP) assay was performed.

## TLYLPHWHRH [pCAP-47]
[1]
  reduction in cell numbers, R175H p53 expressing WI-38 cells: significant reduction in cell numbers
[2]
  reactivity of R175H Mut-p53 towards PAb1620 and PAb240 (conformational change): increased reactivity of R175H Mut-p53 towards PAb1620 and decreased reactivity towards PAb240

## SFILFIRRGRLG [pCAP-60]
[1]
  reduction in cell numbers, R175H p53 expressing WI-38 cells: significant reduction in cell numbers
[2]
  reactivity of R175H Mut-p53 towards PAb1620 and PAb240 (conformational change): increased reactivity of R175H Mut-p53 towards PAb1620 and decreased reactivity towards PAb240

## ASWQALALYAAGW [pCAP-46]
[1]
  reduction in cell numbers, R175H p53 expressing WI-38 cells: significant reduction in cell numbers

## ATQHHYIK [pCAP-93]
[3]
  binding of H1299-R175H p53 extracts to p53-RE DNA: elevate the binding of H1299-R175H p53 extracts to p53-RE DNA

## YPTQGHLR [pCAP-36]
[1]
  reduction in cell numbers, R175H p53 expressing WI-38 cells: significant reduction in cell numbers
[2]
  reactivity of R175H Mut-p53 towards PAb1620 and PAb240 (conformational change): increased reactivity of R175H Mut-p53 towards PAb1620 and decreased reactivity towards PAb240

## HSSHHHPVHSWN [pCAP-83]
[3]
  binding of H1299-R175H p53 extracts to p53-RE DNA: elevate the binding of H1299-R175H p53 extracts to p53-RE DNA

## WNHHHSTPHPAH [pCAP-97]
[1]
  reduction in cell numbers, R175H p53 expressing WI-38 cells: significant reduction in cell numbers
[3]
  binding of H1299-R175H p53 extracts to p53-RE DNA: elevate the binding of H1299-R175H p53 extracts to p53-RE DNA
